Data published in patent US20180335433A1, “COMPOSITIONS TARGETING PKC-THETA AND USES AND METHODS OF TREATING PKC-THETA PATHOLOGIES, ADVERSE IMMUNE RESPONSES AND DISEASES” (La Jolla Institute for Allergy and Immunology, priority 2011, published 2018).

Biological target: CD28, endogenous in primary mouse CD4+ T cells (mouse) (UniProt P31041)
Experiment: cell-based or functional assay

CD28, endogenous in primary mouse CD4+ T cells (mouse), sequence (P31041 20-218): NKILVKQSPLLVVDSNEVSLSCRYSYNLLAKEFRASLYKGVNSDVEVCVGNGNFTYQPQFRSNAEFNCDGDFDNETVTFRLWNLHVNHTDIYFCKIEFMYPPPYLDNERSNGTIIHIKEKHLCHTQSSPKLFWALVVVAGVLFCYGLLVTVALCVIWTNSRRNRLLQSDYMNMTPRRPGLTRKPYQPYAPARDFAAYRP

Treg (FoxP3+) differentiation: 4 fold
inhibition of Th2 differentiation: 75%
inhibition of Th17 differentiation: 75%
Substance: Myc-tagged PKCθ V3 domain (aa 282-379 of human PKCθ, N-terminal Myc tag) (from UniProt Q04759 282-379)
